Data reported in patent EP4778941A1 (Jiangsu Hengrui Pharmaceuticals Co., Ltd., dated 2025).

Key:
[1] = target: T1, His-tagged human HER3 antigen (human, UniProt P21860 20-643); assay: SPR, Biacore 8K; antibody captured, His-tagged human HER3 antigen 6.25-400 nM as analyte; 1:1 Langmuir
T1 construct: Soluble antigen used as analyte in SPR; not shown: His tag

[2] = target: T2, Human HER3 protein on the cell surface (human, UniProt P21860 20-1342); assay: FACS on MDA-MB-453 cells (HER3 single-positive)
T2 construct: whole, on cells; also called HER3 single-positive cells (MDA-MB-453)

[3] = target: T2, Human HER3 protein on the cell surface; assay: cell-based or functional assay
[4] = target: Human HER3 and MET proteins together on HER3/MET double-positive cells (human, UniProt P21860 20-1342; P08581 25-1390); assay: cell-based or functional assay
[5] = target: T3, His-tagged human MET antigen (human, UniProt P08581 25-932); assay: SPR, Biacore 8K; antibody captured, His-tagged human MET antigen 6.25-400 nM as analyte; 1:1 Langmuir
T3 construct: Soluble antigen used as analyte in SPR; not shown: His tag
T3 sequence (P08581 25-932 limits assumed): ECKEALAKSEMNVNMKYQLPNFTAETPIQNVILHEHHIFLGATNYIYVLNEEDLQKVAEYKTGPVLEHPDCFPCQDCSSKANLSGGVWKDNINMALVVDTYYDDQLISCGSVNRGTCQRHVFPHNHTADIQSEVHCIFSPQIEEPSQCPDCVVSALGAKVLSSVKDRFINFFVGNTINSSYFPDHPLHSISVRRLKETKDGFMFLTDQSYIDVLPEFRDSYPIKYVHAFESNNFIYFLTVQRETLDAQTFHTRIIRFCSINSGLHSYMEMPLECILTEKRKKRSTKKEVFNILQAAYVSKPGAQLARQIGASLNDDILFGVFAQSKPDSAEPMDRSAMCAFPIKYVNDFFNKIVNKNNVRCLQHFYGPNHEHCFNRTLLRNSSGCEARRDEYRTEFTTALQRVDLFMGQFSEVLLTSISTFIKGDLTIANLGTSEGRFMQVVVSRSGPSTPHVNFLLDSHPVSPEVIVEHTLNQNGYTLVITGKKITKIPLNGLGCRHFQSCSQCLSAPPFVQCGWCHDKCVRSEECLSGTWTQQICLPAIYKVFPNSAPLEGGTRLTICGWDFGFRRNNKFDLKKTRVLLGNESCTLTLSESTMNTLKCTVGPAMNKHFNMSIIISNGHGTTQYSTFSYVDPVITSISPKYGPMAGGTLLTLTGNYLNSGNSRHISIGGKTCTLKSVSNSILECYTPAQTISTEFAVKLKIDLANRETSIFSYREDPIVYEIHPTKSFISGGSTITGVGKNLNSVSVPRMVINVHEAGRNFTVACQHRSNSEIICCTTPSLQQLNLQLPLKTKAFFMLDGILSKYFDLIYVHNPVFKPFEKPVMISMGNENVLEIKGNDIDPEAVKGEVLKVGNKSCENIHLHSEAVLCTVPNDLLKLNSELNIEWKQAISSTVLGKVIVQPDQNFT

Kd [1]	koff [1]	kon [1]	Kd [5]	koff [5]	kon [5]	Binder	further results
51.4 nM	0.0295 s⁻¹	573000 M⁻¹ s⁻¹				Antibody A N93Q (antibody, human IgG1, kappa, V domains shown, Differs from antibody A only by N to Q at position 93 of VL) VH: QVQLVQSGGGLVQPGRSLRLSCAASGFTFDDYAMHWVRQAPGKGLEWVSGISWNSGSIGYADSVKGRFTISRDNAKNSLYLQMNSLRAEDTALYYCAKEGLPGLDYWGQGTLVTVSS VL: DIQMTQSPSSLSASIGDRATITCRASQHVGTYLNWYQQKPGKTPKLLISGAANLQSGVPSRFSGSGSGTDFTLTISSLQPEDFATYYCQQSYQTPPFSFGQGTKVEIKR	
32.6 nM	0.0215 s⁻¹	659000 M⁻¹ s⁻¹				Antibody A N93S (antibody, human IgG1, kappa, V domains shown, Differs from antibody A only by N to S at position 93 of VL) VH: QVQLVQSGGGLVQPGRSLRLSCAASGFTFDDYAMHWVRQAPGKGLEWVSGISWNSGSIGYADSVKGRFTISRDNAKNSLYLQMNSLRAEDTALYYCAKEGLPGLDYWGQGTLVTVSS VL: DIQMTQSPSSLSASIGDRATITCRASQHVGTYLNWYQQKPGKTPKLLISGAANLQSGVPSRFSGSGSGTDFTLTISSLQPEDFATYYCQQSYSTPPFSFGQGTKVEIKR	
97.9 nM	0.0329 s⁻¹	336000 M⁻¹ s⁻¹				Antibody A N93T (antibody, human IgG1, kappa, V domains shown, Differs from antibody A only by N to T at position 93 of VL) VH: QVQLVQSGGGLVQPGRSLRLSCAASGFTFDDYAMHWVRQAPGKGLEWVSGISWNSGSIGYADSVKGRFTISRDNAKNSLYLQMNSLRAEDTALYYCAKEGLPGLDYWGQGTLVTVSS VL: DIQMTQSPSSLSASIGDRATITCRASQHVGTYLNWYQQKPGKTPKLLISGAANLQSGVPSRFSGSGSGTDFTLTISSLQPEDFATYYCQQSYTTPPFSFGQGTKVEIKR	
15 nM	0.0108 s⁻¹	717000 M⁻¹ s⁻¹				Antibody A T94V (antibody, human IgG1, kappa, V domains shown, Differs from antibody A only by T to V at position 94 of VL) VH: QVQLVQSGGGLVQPGRSLRLSCAASGFTFDDYAMHWVRQAPGKGLEWVSGISWNSGSIGYADSVKGRFTISRDNAKNSLYLQMNSLRAEDTALYYCAKEGLPGLDYWGQGTLVTVSS VL: DIQMTQSPSSLSASIGDRATITCRASQHVGTYLNWYQQKPGKTPKLLISGAANLQSGVPSRFSGSGSGTDFTLTISSLQPEDFATYYCQQSYNVPPFSFGQGTKVEIKR	
						Anti-HER3/MET bispecific antibody 2232-02 (S3-A) (bispecific antibody, human IgG1, kappa) heavy 1: not shown light 1: DIVLTQSPDSLAVSLGERATINCRADKSVSTSTYNYLHWYQQKPGQPPKLLIYLASNLASGVPDRFSGSGSGTDFTLTISSLQAEDVAVYYCQHSRDLPPTFGQGTKLEIKGGGGSGIPPKIECLPIDISIDEGKVLTVASAFTGEPTPEVTWSTGGRKIHSQEQGRFHIENTDDSTTLTIKDVQKQDGGLYTLTLRNEFGSDSATVNIHIRSI heavy 2: QVQLVQSGGGLVQPGRSLRLSCAASGFTFDDYAMHWVRQAPGKGLEWVSGISWNSGSIGYADSVKGRFTISRDNAKNSLYLQMNSLRAEDTALYYCAKEGLPGLDYWGQGTLVTVSSASTKGPSVFPLAPSSKSTSGGTAALGCLVKDYFPEPVTVSWNSGALTSGVHTFPAVLQSSGLYSLSSVVTVPSSSLGTQTYICNVNHKPSNTKVDKKVEPKSCDKTHTCPPCPAPELLGGPSVFLFPPKPKDTLMISRTPEVTCVVVDVSHEDPEVKFNWYVDGVEVHNAKTKPREEQYNSTYRVVSVLTVLHQDWLNGKEYKCKVSNKALPAPIEKTISKAKGQPREPQVCTLPPSREEMTKNQVSLSCAVKGFYPSDIAVEWESNGQPENNYKTTPPVLDSDGSFFLVSKLTVDKSRWQQGNVFSCSVMHEALHNHYTQKSLSLSPGK light 2: DIQMTQSPSSLSASIGDRATITCRASQHVGTYLNWYQQKPGKTPKLLISGAANLQSGVPSRFSGSGSGTDFTLTISSLQPEDFATYYCQQSYNTPPFSFGQGTKVEIKRTVAAPSVFIFPPSDEQLKSGTASVVCLLNNFYPREAKVQWKVDNALQSGNSQESVTEQDSKDSTYSLSSTLTLSKADYEKHKVYACEVTHQGLSSPVTKSFNRGEC	EC50 [2]: 2.64 nM; Maximum fluorescence value [2]: 1870; Minimum cell viability (%) [3]: 25.8%
						Anti-HER3/MET bispecific antibody P8-A (bispecific antibody, human IgG1, kappa) heavy 1: not shown light 1: NFMLTQPHSVSESPGKTVTISCTRSSGSIAFDYVQWYQQRPGSAPTTVIYEDNQRPSGVPDRFSASIDSSSNSASLTISALKTEDEADYYCQSYDNSNSWVFGGGTKLTVLGGGGSGIPPKIECLPIDISIDEGKVLTVASAFTGEPTPEVTWSTGGRKIHSQEQGRFHIENTDDSTTLTIKDVQKQDGGLYTLTLRNEFGSDSATVNIHIRSI heavy 2: QVQLVQSGGGLVQPGRSLRLSCAASGFTFDDYAMHWVRQAPGKGLEWVSGISWNSGSIGYADSVKGRFTISRDNAKNSLYLQMNSLRAEDTALYYCAKEGLPGLDYWGQGTLVTVSSASTKGPSVFPLAPSSKSTSGGTAALGCLVKDYFPEPVTVSWNSGALTSGVHTFPAVLQSSGLYSLSSVVTVPSSSLGTQTYICNVNHKPSNTKVDKKVEPKSCDKTHTCPPCPAPELLGGPSVFLFPPKPKDTLMISRTPEVTCVVVDVSHEDPEVKFNWYVDGVEVHNAKTKPREEQYNSTYRVVSVLTVLHQDWLNGKEYKCKVSNKALPAPIEKTISKAKGQPREPQVCTLPPSREEMTKNQVSLSCAVKGFYPSDIAVEWESNGQPENNYKTTPPVLDSDGSFFLVSKLTVDKSRWQQGNVFSCSVMHEALHNHYTQKSLSLSPGK light 2: DIQMTQSPSSLSASIGDRATITCRASQHVGTYLNWYQQKPGKTPKLLISGAANLQSGVPSRFSGSGSGTDFTLTISSLQPEDFATYYCQQSYNTPPFSFGQGTKVEIKRTVAAPSVFIFPPSDEQLKSGTASVVCLLNNFYPREAKVQWKVDNALQSGNSQESVTEQDSKDSTYSLSSTLTLSKADYEKHKVYACEVTHQGLSSPVTKSFNRGEC	Minimum cell viability (%) [4]: 12.1%
			17.6 nM	0.00146 s⁻¹	83000 M⁻¹ s⁻¹	Antibody A13 N30Q (antibody, human IgG1, kappa, V domains shown, Differs from antibody A13 only by N to Q at position 30 of VL) VH: QVQLVQSGAEVKKPGASVKVSCEASGYTFTSYGFSWVRQAPGQGLEWMGWISASNGNTYYAQKLQGRVTMTTDTSTSSAYMELRSLRSDDTAVYYCARVYADYADYWGQGTLVTVSS VL: DIQMTQSPSSVSASVGDRVTITCRASQGIQTWLAWYQQKPGKAPKLLIYAASSLKSGVPSRFSGSGSGADFTLTISSLQPEDFATYYCQQANSFPLTFGGGTKVEIKR	
			93.1 nM	0.00521 s⁻¹	56000 M⁻¹ s⁻¹	Antibody A13 T31V (antibody, human IgG1, kappa, V domains shown, Differs from antibody A13 only by T to V at position 31 of VL) VH: QVQLVQSGAEVKKPGASVKVSCEASGYTFTSYGFSWVRQAPGQGLEWMGWISASNGNTYYAQKLQGRVTMTTDTSTSSAYMELRSLRSDDTAVYYCARVYADYADYWGQGTLVTVSS VL: DIQMTQSPSSVSASVGDRVTITCRASQGINVWLAWYQQKPGKAPKLLIYAASSLKSGVPSRFSGSGSGADFTLTISSLQPEDFATYYCQQANSFPLTFGGGTKVEIKR	
			17 nM	0.0018 s⁻¹	106000 M⁻¹ s⁻¹	Antibody A13 N30T (antibody, human IgG1, kappa, V domains shown, Differs from antibody A13 only by N to T at position 30 of VL) VH: QVQLVQSGAEVKKPGASVKVSCEASGYTFTSYGFSWVRQAPGQGLEWMGWISASNGNTYYAQKLQGRVTMTTDTSTSSAYMELRSLRSDDTAVYYCARVYADYADYWGQGTLVTVSS VL: DIQMTQSPSSVSASVGDRVTITCRASQGITTWLAWYQQKPGKAPKLLIYAASSLKSGVPSRFSGSGSGADFTLTISSLQPEDFATYYCQQANSFPLTFGGGTKVEIKR	
			7.69 nM	0.000776 s⁻¹	101000 M⁻¹ s⁻¹	Antibody A13 N30S (antibody, human IgG1, kappa, V domains shown, Differs from antibody A13 only by N to S at position 30 of VL) VH: QVQLVQSGAEVKKPGASVKVSCEASGYTFTSYGFSWVRQAPGQGLEWMGWISASNGNTYYAQKLQGRVTMTTDTSTSSAYMELRSLRSDDTAVYYCARVYADYADYWGQGTLVTVSS VL: DIQMTQSPSSVSASVGDRVTITCRASQGISTWLAWYQQKPGKAPKLLIYAASSLKSGVPSRFSGSGSGADFTLTISSLQPEDFATYYCQQANSFPLTFGGGTKVEIKR	
